Laboratory results taken from article PMC5861439 (Nucleic Acids Research, 2017).

Target: Saccharomyces cerevisiae Asf1 (2–169) (Saccharomyces cerevisiae, UniProt P32447 2-169)
Assay: ITC

Sequence of Saccharomyces cerevisiae Asf1 (2–169) (P32447 2-169): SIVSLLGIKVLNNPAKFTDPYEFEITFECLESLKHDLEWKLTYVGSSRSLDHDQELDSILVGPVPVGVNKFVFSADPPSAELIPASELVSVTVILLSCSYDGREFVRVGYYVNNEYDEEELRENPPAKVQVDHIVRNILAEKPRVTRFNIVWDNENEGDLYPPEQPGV

For LAITMLKPRKKAKAL [Rtt109^419–433 peptide], which Kd is on record?
The Kd was 7.78 ± 1.23 µM.
